From patent US20110262445A1 (CEPHALON AUSTRALIA, published 2011)
Numbering of substitutions follows the chain as printed. Like-named read-outs stand apart in the source and are kept apart here.

Experiments:
human IL-12 [1] = target: T1, human IL-12 (human, UniProt P29460 23-328; P29459 23-219); assay: ELISA, coated IL-12
T1 construct: Recombinant (Peprotech); FLAG-tagged IL-12 in the flow cytometry assays, biotinylated in the IL-12Rβ2 assay; also called hIL-12
T1 sequence 1: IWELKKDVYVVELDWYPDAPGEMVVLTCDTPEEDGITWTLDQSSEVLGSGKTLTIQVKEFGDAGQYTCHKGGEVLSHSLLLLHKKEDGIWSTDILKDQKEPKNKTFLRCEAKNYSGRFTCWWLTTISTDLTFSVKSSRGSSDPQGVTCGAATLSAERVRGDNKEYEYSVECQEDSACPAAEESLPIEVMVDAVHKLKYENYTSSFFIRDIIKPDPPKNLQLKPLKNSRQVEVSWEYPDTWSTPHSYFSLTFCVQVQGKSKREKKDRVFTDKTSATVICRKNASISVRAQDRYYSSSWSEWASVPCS
T1 sequence 2: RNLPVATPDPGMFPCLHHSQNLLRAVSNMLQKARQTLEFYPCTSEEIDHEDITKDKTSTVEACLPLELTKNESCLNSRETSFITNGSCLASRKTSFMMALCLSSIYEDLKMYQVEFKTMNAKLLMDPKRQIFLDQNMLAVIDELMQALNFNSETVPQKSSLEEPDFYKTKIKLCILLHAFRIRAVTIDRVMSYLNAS
How it was run: (§1)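 Binding values are absorbance readings. After cytokine (1 μg/mL, carbonate buffer pH 9.6) was coated onto Maxisorp plates overnight at 4° C and the plates were blocked with 1% BSA in PBS, antibody titrations were bound for 1 hour at 25° C and detected with HRP-linked goat anti-human IgG or anti-murine immunoglobulin (1:2000). Color from TMB, stopped with 1M HCl, was read at 450 nm with 620 nm as reference.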

human IL-23 [2] = target: T2, human IL-23 (human, UniProt P29460 23-328; Q9NPF7 20-189); assay: ELISA, coated IL-23
T2 construct: Recombinant (Ebioscience); HIS-tagged in flow cytometry, biotinylated in some assays; also called hIL-23; rhIL-23
T2 sequence 1: T1 sequence 1
T2 sequence 2: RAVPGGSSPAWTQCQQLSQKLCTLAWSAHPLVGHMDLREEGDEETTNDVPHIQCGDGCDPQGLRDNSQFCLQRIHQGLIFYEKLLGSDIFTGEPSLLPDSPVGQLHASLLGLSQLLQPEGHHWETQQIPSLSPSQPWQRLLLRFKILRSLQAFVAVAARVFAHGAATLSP
How it was run: as §1

human IL-12 [3] = target: T1, human IL-12; assay: ELISA, coated IL-12; remark: listed apart in the source
How it was run: as §1

human IL-23 [4] = target: T2, human IL-23; assay: ELISA, coated IL-23; remark: listed apart in the source
How it was run: as §1

human IL-12 [5] = target: T1, human IL-12; assay: ELISA, coated IL-12; remark: listed apart in the source
How it was run: as §1

human IL-23 [6] = target: T2, human IL-23; assay: ELISA, coated IL-23; remark: listed apart in the source
How it was run: as §1

human IL-12 [7] = target: T1, human IL-12; assay: SPR, IgG
Method: (§2) CU-A6 was converted to Antibody 183, CP-A6 was converted to Antibody 184 and AW-F2 was converted to Antibody 207 by addition of a human heavy chain Fc region (SEQ ID NO: 8) and a constant kappa light chain region (SEQ ID NO: 9). IgG molecules were expressed by co-transfecting the heavy and light chain construct for each antibody into HEK 293E cultures. The expressed IgGs were purified by affinity chromatography and gel exclusion and the resulting monomeric molecules were tested for IL-12 and IL-23 binding by SPR (TABLE 6). All three IgG variants retained binding activity against both analytes with a visible improvement in kd compared to the parental wild-type IgG. Based on this, it is reasonable to expect that scFv variants described in TABLE 4 could be converted to the IgG format and retain improved binding characteristics against IL-12 and IL-23.
(§3) Using a SPR 3000, Protein A was immobilized onto FC1 and FC2 (or alternatively FC3 and FC4) of a CM5 research grade sensor chip using amine coupling, giving approximately […] RU. FC1 was used a blank throughout the experiments. The experiments were run in HBS-P buffer (SPR). At a flow rate of 20 μl/min, 20 μl of 5 μg/mL of antibody was passed over FC2. IL-12, IL-23 or IL-12p40 (Peprotech) were passed over the surface of FC1 and FC2 at concentrations ranging from 66 nM to 2 nM. Regeneration of the surface was performed using 10 mM Glycine, pH 1.0. The sensorgram data from FC2 was subtracted from FC1 and a buffer only control. The curves were fitted using a 1:1 Langmuir equation to generate the kd, ka and KD values. All curves were fitted with a χ² of less then 2.0 where possible.

human IL-23 [8] = target: T2, human IL-23; assay: SPR, IgG
Method: as §2, §3

B1: Antibody 76 (antibody, human IgG1, kappa, V domains shown)
VH: EVQLVQSGAEVKKPGATVKISCKVSGYTFTDYYLHWVQQAPGKGLEWMGWIDPENGDTEYAPKFQGRVTITADTSTDTAYMELSSLRSEDTAVYYCNANKELRYFDVWGQGTMVTVSS
VL: EIVLTQSPATLSLSPGERATLSCRASQSISINLHWYQQKPGQAPRLLIYFASQSISGIPARFSGSGSGTDFTLTISSLEPEDFAVYYCQQSNSFPLTFGGGTKVEIKR
B1: binds (human IL-12 [1]); binds (human IL-23 [2]).

B2: Antibody 78 (antibody, human IgG1, kappa, V domains shown)
VH: B1 VH with E1Q, T17S, I20V, F29L, Q38R, I70M, A72E, N97A, A98T
VL: B1 VL
B2: binds (human IL-12 [1]); binds (human IL-23 [2]).

B3: Antibody 37 (antibody, human IgG1, kappa, V domains shown)
VH: B1 VH with L34M, N99C
VL: B1 VL with F94W
notes: Superhumanized, backmutated heavy chain
B3: binds (human IL-12 [3]); binds (human IL-23 [4]).

B4: Antibody 34 (antibody, human IgG1, kappa, V domains shown)
VH: B1 VH with L34M, N99C
VL: B1 VL with L4M, L13V, D70E, E79Q, P80S, F94W
B4: binds (human IL-12 [3]); binds (human IL-23 [4]).

B5: Antibody 40 (antibody, human IgG1, kappa, V domains shown)
VH: B1 VH with L34M, N97A, A98T, N99C
VL: EIVLTQSPDFQSVTPKEKVTITCRASQSISINLHWYQQKPDQSPKLLIKFASQSISGVPSRFSGSGSGTDFTLTINSLEAEDAATYYCQQSNSWPLTFGGGTKVEIKR
notes: Superhumanized PMA204
B5: binds (human IL-12 [3]); binds (human IL-23 [4]).

B6: Antibody 35 (antibody, human IgG1, kappa, V domains shown)
VH: B1 VH with E1Q, T17S, I20V, F29L, L34M, Q38R, I70M, A72E, N99C
VL: B1 VL with L4M, L13V, D70E, E79Q, P80S, F94W
B6: binds (human IL-12 [3]); binds (human IL-23 [4]).

B7: Antibody 59 (antibody, human IgG1, kappa, V domains shown)
VH: B1 VH with V24A, T30S, Q38R, R67K, A79G, M81L, N97A, M113L
VL: DIQMTQSPSSVSASVGDRVTITCRASQSISINLHWYQQKPGKAPKLLIKFASQSISGVPSRFSGSGSGTDFSLTINSLQPEDFATYYCQQSNSFPLTFGGGTKVEIKR
B7: binds (human IL-12 [5]); binds (human IL-23 [6]).

B8: Antibody 36 (antibody, human IgG1, kappa, V domains shown)
VH: QVQLVQSGAEVKKPGASVKVSCKASGYTFTDYYMHWVRQAPGQGLEWMGWIDPENGDTEYAPKFQGRVTMTTDTSTSTAYMELRSLRSDDTAVYYCNACKELRYFDVWGQGTMVTVSS
VL: B1 VL with L4M, L13V, D70E, E79Q, P80S, F94W
B8: binds (human IL-12 [3]); binds (human IL-23 [4]).

B9: Antibody 184 (antibody, human IgG1, kappa, V domains shown)
VH: B8 VH with M34L, Y60H, C99N
VL: B1 VL with L4M, L13V, D70E, E79Q, P80S
notes: also called CP-A6 as IgG
B9 was tested, and the Kd (human IL-12 [7]) was 0.127 nM, the koff (human IL-12 [7]) was 0.00054 s⁻¹ and the kon (human IL-12 [7]) was 4.2e+06 M⁻¹ s⁻¹. It also gave a Kd (human IL-23 [8]) of 0.104 nM, a koff (human IL-23 [8]) of 4.2e-05 s⁻¹ and a kon (human IL-23 [8]) of 410000 M⁻¹ s⁻¹.

B10: Antibody 77 (antibody, human IgG1, kappa, V domains shown)
VH: B8 VH with M34L, C99N
VL: B1 VL
B10: binds (human IL-12 [1]); binds (human IL-23 [2]).

B11: Antibody 207 (antibody, human IgG1, kappa, V domains shown)
VH: B8 VH with M34L, Y60S, C99N
VL: B1 VL with L4M, L13V, D70E, E79Q, P80S
notes: also called AW-F2 as IgG
With B11 the Kd (human IL-12 [7]) was 0.167 nM, the koff (human IL-12 [7]) was 0.00063 s⁻¹ and the kon (human IL-12 [7]) was 3.7e+06 M⁻¹ s⁻¹. For the same binder, the Kd (human IL-23 [8]) was 0.176 nM, the koff (human IL-23 [8]) was 6.5e-05 s⁻¹ and the kon (human IL-23 [8]) was 370000 M⁻¹ s⁻¹.

B12: Antibody 81 (antibody, human IgG1, kappa, V domains shown)
VH: B1 VH with E1Q, T17S, I20V, F29L, Q38R, I70M, A72E, N97A, A98T
VL: B1 VL with L4M, L13V, D70E, E79Q, P80S
B12: binds (human IL-12 [1]); binds (human IL-23 [2]).

B13: Antibody 79 (antibody, human IgG1, kappa, V domains shown)
VH: B1 VH
VL: B1 VL with L4M, L13V, D70E, E79Q, P80S
B13: binds (human IL-12 [1]); binds (human IL-23 [2]).
